Drawing on US20200347137A1, this text covers Kd, koff and kon for three molecules.

First the molecules themselves.
B1: PL221G5 scFv-Fc (Fc fusion, part only; not given: linker and Fc, part only)
chain, part: EVQLLESGGGLVQPGGSLRLSCAASGFSFSSGYDMCWVRQAPGKGLEWIACIAAGSAGITYDANWAKGRFTISRDNSKNTLYLQMNSLRAEDTAVYYCARSAFSFDYAMDLWGQGTLVTVSSGGGGSGGGGSGGGGSGGGGSDIQMTQSPSTLSASVGDRVTITCQASQSISSHLNWYQQKPGKAPKLLIYKASTLASGVPSRFSGSGSGTEFTLTISSLQPDDFATYYCQQGYSWGNVDNVFGGGTKVEIK
B2: PL004B9 scFv-Fc (Fc fusion, part only; not given: linker and Fc, part only)
chain, part: EVQLVESGGGLVQPGGSLRLSCTVSGIDLSVINMGWVRQAPGKGLEWIGTITYVGNTYYASWAKGRFTISKTSTTVDLKITSPTTEDTAVYYCARESGTIYYSYFNLWGQGTLVTVSSGGGGSGGGGSGGGGSGGGGSAFELTQSPSSLSASVGDRVTIKCQASESISNYLSWYQQIPGKVPKLLIYYASNLASGVPSRFSGSGSGTDFTLTISSLQPEDVATYYCQSYYGGGSAYTFGGGTKVEIK
B3: PL230C6 scFv-Fc (Fc fusion, part only; not given: linker and Fc, part only)
chain, part: QSVEESGGGLVQPGGSLRLSCTASGIDLNTYDMIWVRQAPGKGLEWVGIITYSGSRYYANWAKGRFTISKDNTKNTVYLQMNSLRAEDTAVYYCARDYMSGSHLWGQGTLVTVSSGGGGSGGGGSGGGGSGGGGSAYDMTQSPSSVSASVGDRVTIKCQASEDIYSFLAWYQQKPGKAPKLLIHSASSLASGVPSRFSGSGSGTDFTLTISSLQPEDFATYYCQQGYGKNNVDNAFGGGTKVEIK

PD-L1 recombinant protein (human), sequence (Q9NZQ7 19-238 limits assumed): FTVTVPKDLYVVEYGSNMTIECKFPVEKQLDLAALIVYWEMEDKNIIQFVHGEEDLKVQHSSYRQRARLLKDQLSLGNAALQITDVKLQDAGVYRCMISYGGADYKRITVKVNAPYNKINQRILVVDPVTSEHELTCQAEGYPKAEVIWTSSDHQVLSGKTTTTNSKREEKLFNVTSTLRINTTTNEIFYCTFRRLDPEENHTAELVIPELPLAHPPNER

This assay concerns the target PD-L1 recombinant protein (human) (UniProt Q9NZQ7). The experiment in a line: ForteBio Octet RED96, PD-L1 immobilised, antibody in solution.
B1: the Kd was found to be 0.597 nM, the koff is 0.000303 s⁻¹ and the kon was 508000 M⁻¹ s⁻¹.

As to B2, the Kd stood at 1.42 nM, the koff turned out to be 0.00055 s⁻¹ and the kon was determined as 387000 M⁻¹ s⁻¹.

For the molecule B3, the Kd was 0.917 nM, the koff came out at 0.000461 s⁻¹ and the kon is 503000 M⁻¹ s⁻¹.
